Test results from patent US20100093076A1, “SOLUBLE IL-27 RECEPTOR” (priority 2006, published 2010).
“And” between values parts separate entries of the source, which are not always exact repeats. Identical values can stand only once.

Experiments:
[1] = Pharmacokinetics of soluble receptors in female C57B1/6 mice (serum ELISA, noncompartmental analysis); format: in vivo, mouse; conditions: 100 μg; for AUCINF: extrapolated to infinity
Protocol: Studies were performed to evaluate the pharmacokinetics of the mouse (IL-27RAm(mFc1)) and human (IL-27RA-Fc5) soluble receptors in female C57B1/6 mice.
Serum was generated from each sample and analyzed by a qualified enzyme-linked immunosorbant assay (ELISA). The resulting mean serum concentration versus time profiles were then subjected to noncompartmental pharmacokinetic analyses. The following pharmacokinetic parameters were calculated: C0 and Cmax (extrapolated concentration at time zero and maximum serum concentration, respectively), Tmax (time to achieve maximum concentration), t1/2 λz (terminal half-life), AUC0-t (area under the concentration versus time curve from time zero to the last measurable time point), AUCINF (area under the concentration versus time curve extrapolated to infinity), C1 or C1/F (clearance or clearance divided by bioavailable fraction, respectively), VSS or VZ/F (steady state volume of distribution or volume of distribution divided by the bioavailable fraction, respectively), and F (bioavailable fraction).

[2] = system: acute graft-vs-host disease; experiment: Mouse model of acute graft-vs-host disease; format: in vivo; conditions: acute GVHD
Protocol: Efficacy of IL-27 antagonists was assayed in a mouse model of acute graft-vs-host disease (Durie et al., J. Clin. Invest. 94:1333-1338, 1994). Parental mice (C57BL/6; n=12) were euthanized, and their spleens were collected. The pooled spleens were smashed using two glass slides to dissociate splenic cells. Lysis buffer was added to the splenocyte suspension to remove red blood cells. The cells were washed in RPMI 1640 (10% FBS) medium and resuspended in an appropriate amount of PBS to make a cell concentration of 300 million cells/ml. Protein treatments were administered by intraperitoneal injection every other day beginning on day-1 and continuing until day 15. Dexamethasone (DEX) was administered by injection daily on days 0 through 6. On day 0, 75 million donor splenic lymphocytes from B6 mice (250.micro.1 per injection) were injected intravenously into recipient mice (C57BL/6×DBA/2 F1 (BDF1); n=10 per group) mice. Mice were monitored 3 times a week for changes in body weight and any signs of moribundity. Mice that lost >20% of their initial body weight were euthanized. Otherwise, mice were sacrificed 18 days after the cell transfer. Spleens were collected, and a CTL-specific lysis assay using P815 cells was performed as a quantitative measurement of acute GVHD. Furthermore, spleens were stained for T- and B-cell markers, including MHC class I markers (H2^b and H2^d) to look at donor/recipient cell ratio (acute GVHD spleen cells are mostly donor cells). Sera were collected to measure serum level of IgG1, IgG2a, and IgE by ELISA, and cytokine and chemokine levels using a commercially available kit (Luminex Corporation, Austin, Tex.).

single-chain mouse IL-27 = molecular target: T1, single-chain mouse IL-27 (Mus musculus, UniProt O35228+Q8K3I6); experiment: IL-27 inhibition of IL-2 production neutralized by IL-27RA Fc (third set of experiments); format: cell-based; conditions: + IL-27 (10 ng/ml)
T1 sequence (O35228+Q8K3I6 with tags, fused parts or gaps): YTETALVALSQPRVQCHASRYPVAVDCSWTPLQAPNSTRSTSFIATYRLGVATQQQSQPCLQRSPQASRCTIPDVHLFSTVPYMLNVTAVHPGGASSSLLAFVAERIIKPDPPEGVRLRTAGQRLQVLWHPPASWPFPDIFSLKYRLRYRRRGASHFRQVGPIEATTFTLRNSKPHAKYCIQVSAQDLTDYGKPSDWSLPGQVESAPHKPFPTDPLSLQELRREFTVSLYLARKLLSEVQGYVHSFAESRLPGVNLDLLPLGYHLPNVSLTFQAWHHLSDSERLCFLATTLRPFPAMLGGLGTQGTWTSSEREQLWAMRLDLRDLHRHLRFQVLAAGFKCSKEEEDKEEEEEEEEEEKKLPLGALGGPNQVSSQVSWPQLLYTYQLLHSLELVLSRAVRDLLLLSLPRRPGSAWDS
Protocol: Naïve mouse CD4 T-cells were isolated as described above. For testing of the neutralizing mAbs, the naïve CD4 T cells were preincubated for 30 minutes at 37 degrees C. with graded concentrations (60, 30, 15, 7.5, 3.75, 1.875.micro.g/ml) of either neutralizing rat anti-mouse IL27RA mAb (each mAb tested separately), rat IgG1 isotype control mAb, rat IgG2a isotype control mAb, or no mAb. […] The CD4 T cells (4×10^5/well) were then transferred to anti-CD3 coated tissue culture plates. Single-chain mouse IL-27 (10 ng/ml) was then added to the plates. Duplicate plates were set up for all experimental conditions. The plates were then cultured at 37 degrees for up to 72 hours.
For testing of the soluble receptor, single-chain mouse IL-27 (10 ng/ml) was preincubated for 30 minutes at 37 degrees C. with either IL27RAm(mFc1) (10.0 and 5.0.micro.g/ml), IL27RA-Fc5, mouse Fc1 protein (10.0 and 5.0.micro.g/ml), human Fc5 protein (10.0 and 5.0.micro.g/ml), or no recombinant protein in wells of the anti-CD3 coated plates. 4×10^5 CD4^+ CD62L high cells were added to the wells. Duplicate plates were set up for all experimental conditions. The plates were then cultured at 37 degrees for up to 72 hours. Cell supernatants were collected from one set of plates at 48 hours and from the duplicate set of plates at 72 hours. The supernatants were stored frozen at −80° C.

“human IL-27RA-Fc5: Extracellular domain of human IL27RA (amino acids 1 to 512 of SEQ ID NO:3) fused to Fc5, effector minus human gamma1 Fc; SEQ ID NO:16” showed an AUC0-120 ([1]; IP) of 1310 µg·h/mL, a Cl/F ([1]; IP) of 0.0725 mL/h and a Tmax ([1]; IP) of 3 h. The “t1/2 λz (terminal half-life)” value ([1]; IP) was 28.3 h, the Cmax ([1]; IP, mouse serum) was 35200 ng/mL and the AUCINF ([1]; IP) was 1380 µg·h/mL. The AUC0-120 ([1]; IV) was 1400 µg·h/mL, the Cl ([1]; IV) was 0.0664 mL/h and the Vss ([1]; IV) was 2.54 mL. For the same substance, the “t1/2 λz (terminal half-life)” value ([1]; IV) was 34.9 h, the “Co (extrapolated concentration at time zero)” value ([1]; IV, mouse serum) was 122 µg/mL and the AUCINF ([1]; IV) was 1510 µg·h/mL. It also gave an AUC0-120 ([1]; SC) of 1130 µg·h/mL, a Cl/F ([1]; SC) of 0.0828 mL/h and a Tmax ([1]; SC) of 6 h. The “t1/2 λz (terminal half-life)” value ([1]; SC) was 29.3 h, the Cmax ([1]; SC, mouse serum) was 21000 ng/mL and the AUCINF ([1]; SC) was 1210 µg·h/mL. For the same substance, the colon length shortening [2] was “did prevent colon length shortening”, the splenomegaly [2] was “did not prevent splenomegaly” and the “host spleen cells, CD4+T cells, and Treg cells” value ([2]; BDF1 recipients, day 18) was “maintained host spleen cells, CD4+T cells, and Treg cells”. For the same substance, the Body weight loss ([2]; versus PBS control group) was “not severe and was significantly less than in the PBS control group”, the IL-2 level ([2]; serum, arrows, key not given) was “↑↑↑” and the IL-5 level ([2]; serum, arrows, key not given) was “↑↑”. For the same substance, the IL-6 level ([2]; serum, arrows, key not given) was “↓↓↓”, the IgE level ([2]; serum, arrows, key not given) was “↑” and the IgG1 level ([2]; serum, arrows, key not given) was “↑↑”. For the same substance, the IgG2A level ([2]; serum, arrows, key not given) was “↑↑”, the IL-2 concentration (single-chain mouse IL-27; 48 hr, protein conc. 5 (μg/ml; Fc controls in molar equiv.)) was 5784.11 pg/mL and the IL-2 concentration (single-chain mouse IL-27; 48 hr, protein conc. 10 (μg/ml; Fc controls in molar equiv.), listed as hIL-27RA) was 5774.94 pg/mL and 5333.6 pg/mL. The IL-2 concentration (single-chain mouse IL-27; 72 hr, protein conc. 5 (μg/ml; Fc controls in molar equiv.)) was 1869.62 pg/mL and the IL-2 concentration (single-chain mouse IL-27; 72 hr, protein conc. 10 (μg/ml; Fc controls in molar equiv.), listed as hIL-27RA) was 28607.63 pg/mL and 17481.17 pg/mL.
